Measured values from US20250179187A1, “ANTI PD-L2 ANTIBODY” (REJUVERON SENESCENCE THERAPEUTICS AG, priority 2022, published 2025).

Key:
PyMT mammary tumor = assay: Implantable mouse PyMT mammary tumor model; format: in vivo; conditions: in combination with doxorubicin, up to day 49, compared to TY-25 in combination with doxorubicin
Experimental: 1 million PyMT cells were injected in PBS into the right mammary fat pad number 4, with an N=10 animals per treatment group. When tumors reached an average of 100 millimeter cubed on day 17 post-injection, treatment regimens were initiated. All mice were sorted into study groups based on caliper estimation of tumor burden. The mice were distributed to ensure that the mean tumor burden for all groups was within 10% of the overall mean tumor burden for the study population. The first dose of doxorubicin was administered intraperitoneally at 4 mg/kg, as well as the antibodies, all at doses of 10 mg/kg intraperitoneally, on day 17 post-implantation. Doxorubicin (MWI Animal Health, BJ0080A/NA) was administered once more on day 24 and antibodies on days 20, 24, 27, 31, 34, 38, 41. The following commercial antibodies were used in the study: anti-mouse PD-L2 (clone TY-25, Bio X Cell lot/cat 0411901. Vehicle-treated animals received only vehicle solvent for doxorubicin as a no-treatment control. Tumor volume was measured at least 2-3 times per week throughout the study with a standard caliper.

PyMT spontaneous tumors = assay: Spontaneous mouse PyMT breast tumor model with tumor immunostaining; format: in vivo
Experimental: Hemizygous transgenic PyMT mice were allowed to develop tumors to an average size of around 200 cubic millimeters, usually around 9 weeks, at which time treatment was initiated, with N=3-5 per treatment group. Doxorubicin (Aurovitas) was administered intraperitoneally once per week at 4 mg/kg and antibodies were administered every three days at a dose of 10 mg/kg during four weeks or 3 mg/kg where noted. Vehicle-treated animals received only vehicle solvent for doxorubicin as a no-treatment control. Tumors were measured with a standard caliper once per week. At the end of the study, tumors were resected and further analyzed by immunohistochemistry.
For the depleting study, the same treatment regimen described above was carried out but in combination with CD4 or CD8-depleting antibodies (BioXCell), administered on day −1, day 0 and weekly thereafter at a dose of 200 micrograms per animal.
For double SA-beta-galactosidase/PD-L2 staining, following resection, tumors were fixed in 2% paraformaldehyde and 0.2% glutaldehyde in PBS for 2 hours at room temperature. Samples were washed in PBS for 15 minutes then stained by standard procedures for SA-beta-galactosidase activity overnight. Following this, tumors were washed in PBS for 15 minutes, dehydrated in 70% ethanol and embedded in paraffin, sectioned, and stained for PDL2 with an anti-PDL2 antibody (Cell Signaling, D6L5A cat #49189) by standard immunohistochemistry techniques. To quantify the number of cells double positive for SA-beta-galactosidase and PDL2, 3 random fields from 2 mammary glands from each animal in each treatment group was analyzed with Image J software. Staining for CD3, CD4 and CD8 was also carried out by standard immunohistochemistry techniques on paraffin-embedded material and quantified according to pixel density using Image J software.

B1: VH0/VK0-mIgG1: parental murine anti-PD-L2 antibody on mIgG1 backbone; SEQ ID NO: 21/SEQ ID NO: 22 (antibody, V domains shown)
VH: QVQLQQSGAELVRPGTSVKVSCKASGYAFSNYFIEWVKQRPGQGLEWIGLNIPGSGGSNYAEKFKGKATLTADKSSSTAYMQLSSLTSEDSAVYFCARRRLPPDWYFDVWGTGTTVTVSS
VL: DVVMTQTPLSLPVSLGDQASISCRSSQSLVHSDGNTYLHWYLQKPGQSPKLLIYKVSNRFSGVPDRFSGSGSGTDFTLKISRVEAEDLGVYFCSQSTHVPWTFGGGTKLEIK
**Q.** For B1, which progression of tumors (PyMT mammary tumor) is on record?
**A.** smaller progression of tumors

**Q.** What about the final tumor volume (PyMT spontaneous tumors; 3 mg/kg antibody with doxorubicin over four weeks, compared to doxorubicin alone or TY-25 and doxorubicin) of the same molecule?
**A.** greater reduction in final tumor volume

**Q.** What about the tumor growth (PyMT spontaneous tumors; combination with doxorubicin vs doxorubicin and mIgG1 control) of the same molecule?
**A.** inhibited tumor growth more

**Q.** What about the “relative numbers of CD3+, CD8+ and CD4+ cells in PyMT spontaneous tumors” value (PyMT spontaneous tumors; combination with doxorubicin, compared to vehicle or doxorubicin-only treated mice (p<0.05)) of the same molecule?
**A.** increased relative numbers

**Q.** What about the “inhibition of tumor progression under depleting antibodies against CD4+ cells” value (PyMT spontaneous tumors; doxorubicin and antibody plus CD4-depleting antibodies) of the same molecule?
**A.** only slightly relieved this inhibition

**Q.** What about the “inhibition of tumor progression under depleting antibodies against CD8+ cells” value (PyMT spontaneous tumors; doxorubicin and antibody plus CD8-depleting antibodies) of the same molecule?
**A.** relieve the inhibition

**Q.** What about the “cells double-positive for PD-L2 and SA-βGal in PyMT tumors” value (PyMT spontaneous tumors; immunohistochemistry, antibody co-treated with doxorubicin vs Vehicle or Doxorubicin+mIgG1 (p<0.05)) of the same molecule?
**A.** significantly lower
